Data published in patent US20140315811A1, “OPHTHALMIC PREPARATIONS BASED ON PACAP (PITUITARY ADENYLATE CYCLASE ACTIVATING POLYPEPTIDE) WHICH RESTORE THE NORMAL VISUAL FUNCTION IN EARLY GLAUCOMA” (HMFRA HUNGARY LIMITED LIABILITY COMPANY, priority 2011, published 2014).

How the values were obtained:
[1] = test system: DBA/2J mouse (photoreceptors and outer nuclear layer response to light); test: Flash ERG after repeated topical application in murine spontaneous glaucoma model; format: in vivo; conditions: PACAP 50 μM in saline, two weeks, one treatment every 48 h
Excerpt: The other type of electroretinogram, flash ERG, which measures the response of the photoreceptors and the outer nuclear layer to light, appears wholly intact in glaucoma, further supporting the theory that this is a type of disorder affecting the inner nuclear layer, namely the ganglion cells, at least at the early stage.

[2] = test system: cAMP levels in the retina; test: Determination of cAMP levels in the retina after topical application of PACAP 38 (Cyclic AMP EIA kit, retinal homogenate); format: in vivo, mice (C57BL-6J); conditions: topical application into conjunctival sac, PACAP 50 μM (0.226 μg/μl) in saline (0.9% NaCl) and acetic acid (5%); 6 hours after application; Student's t-test p<0.05
Method: • The preparation Based on Saline Solution (0.9% NaCl) Containing PACAP 38 was Used
The test was conducted on mice (C57BL-6J, Harlan, Italy); PACAP 38 was applied topically, instilled into the conjunctival sac of one eye, while the other eye, used as control, was treated with the saline solution (“placebo”) only. • Determination of cAMP Levels in the Retina
The animals were sacrificed 6 hours after the topical application, when deep anaesthesia had been induced by an intraperitoneal urethane injection (20%). The eye was then removed, and the cAMP level measured in the retinal homogenate of the eye treated with PACAP and of the other eye treated with saline only (control eye). The measurements were performed by cyclic AMP assay using the Cyclic AMP EIA KIT ([…]). The results shown in the chart in FIG. 1 were obtained with a topical application of PACAP (50 μM; 0.226 μg/μl) in saline solution (0.9% NaCl) and acetic acid (5%), and are expressed as relative values (%) compared with the control eye.

[3] = test system: DBA/2J mouse (retinal ganglion cells / inner nuclear layer response); test: Pattern electroretinogram (P-ERG) after repeated topical application in murine spontaneous glaucoma model; format: in vivo
Excerpt: The PACAP receptor, called PAC1, is known to be expressed in the ganglion cells (Seki et al. 1997; 2000; D'Agata and Cavallaro 1998; Hannibal and Fahrenkrug 2004; Kubrusly et al. 2005). The activity of PACAP was verified in the most common experimental model of spontaneous glaucoma, a double mutant mouse called DBA/2J (John et al., 1998; Chang et al., 1999). The DBA/2J mouse presents homozygous mutations of two separate genes; the first is […] (Tyrpl−/−) coding for a melanosome protein, and the second is a membrane glycoprotein (Gpnmb−/−); pigment granules accumulate in the trabecular meshwork, similar to the form of pigmentary glaucoma, with consequent trabecular degeneration, atrophy of the iris and progressive impairment of the outflow of aqueous humor, which leads to an increase in IOP.
This mouse is characterised by a progressive increase in IOP, with progressive loss of the retinal response to structured visual stimuli (which may be lattices formed by pale strips alternating with dark strips, or chess pieces, with different contrasts and sizes) which depends on the inner nuclear layer/ganglion cells; in humans and in the animal model, this retinal response is called the pattern electroretinogram (P-ERG; Domenici et al.,1991; Ventura and Porciatti, 2006; Falsini et al., 2008). The dysfunction of the ganglion cells is followed at a late stage by degeneration of the ganglion cells, with a reduction in their density and progressive atrophy of the optic nerve (Ventura et al., 2006; Buckingham et al., 2008). […] At the age of 11 months the IOP rises further; a progression of the disorder similar to that which takes place in human patients can therefore be deduced. […]

“Pituitary Adenylate Cyclase Activating Polypeptide [PACAP]” was tested, and the “Flash ERG of the treated eye (response of photoreceptors and outer nuclear layer to light)” value [1] was “normal flash ERG”, the “cAMP level in retinal homogenate, treated eye compared with control eye” value [2] was “significantly higher” and the “Effectiveness on P-ERG across the three concentrations tested” value ([3]; 500 nM (0.0022 μg/μl), 1 μM (0.0045 μg/μl), 50 μM (0.226 μg/μl), topical, every 48 hours for two weeks, 8-month-old mice) was “only the highest concentration (50 μM, 0.226 μg/μl) proved effective”. For the same substance, the “Effect on alteration of P-ERG (treated eye vs control eye)” value ([3]; PACAP 50 μM (0.226 μg/μl) in saline, topical, one application every 48 hours for 2 weeks between 8 and 8.5 months of age, p<0.05) was “prevented the alteration of P-ERG” and the “Minimal effective concentration able to exert protective effects on the ganglion cell function” value ([3]; repeated topical treatment, DBA/2J mouse, early stage glaucoma) was 0.226 µg/µL.
